Measured values from US20220025045A1 (INNATE PHARMA, published 2022).

What was measured:
[1] = biological target: T1, recombinant human ILT2 protein (analyte in SPR and Octet) (human, UniProt Q8NHL6 24-458, limits assumed); assay: SPR, mAb captured on Protein-A, monovalent, two state reaction
T1 construct: also called Human ILT2 recombinant proteins
Description: Measurements were performed on a Biacore T200 apparatus (Biacore GE Healthcare) at 25° C. In all Biacore experiments HBS-EP+ (Biacore GE Healthcare) and NaOH 10 mM served as running buffer and regeneration buffer respectively. Sensorgrams were analyzed with Biacore T100 Evaluation software. Protein-A was purchased from (GE Healthcare). Human ILT2 recombinant proteins were cloned, produced and purified at Innate Pharma. Protein-A proteins were immobilized covalently to carboxyl groups in the dextran layer on a Sensor Chip CMS. The chip surface was activated with EDC/NHS (N-ethyl-N′-(3-dimethylaminopropyl) carbodiimidehydrochloride and N-hydroxysuccinimide (Biacore GE Healthcare)). Protein-A was diluted to 10 μg/ml in coupling buffer (10 mM acetate, pH 5.6) and injected until the appropriate immobilization level was reached (i.e. 600 RU). Deactivation of the remaining activated groups was performed using 100 mM ethanolamine pH 8 (Biacore GE Healthcare). […] For blank subtraction, cycles were performed again replacing ILT2 proteins with running buffer. The monovalent affinity analysis was conducted following a regular Capture-Kinetic protocol as recommended by the manufacturer (Biacore GE Healthcare kinetic wizard). […]

Mutant D4-1B = biological target: T2, Mutant D4-1B; assay: flow cytometry titration on cells transfected with ILT2 mutant 4-1b
T2 construct: D4 domain point mutant; also called ILT2 mutant 4-1b

ILT2 mutant 4-2 = biological target: T3, ILT2 mutant 4-2 (human, UniProt Q8NHL6 24-650); assay: flow cytometry titration on cells transfected with ILT2 mutant 4-2
T3 construct: Transfected in HEK293T cells

Mutant D4-4 = biological target: T4, Mutant D4-4; assay: flow cytometry titration on cells transfected with ILT2 mutant 4-4
T4 construct: D4 domain point mutant; also called ILT2 mutant 4-4

[2] = biological target: T1, recombinant human ILT2 protein (analyte …); assay: BLI (Octet RED96), mAb captured on AMC biosensor, 1:1 model
[3] = biological target: T5, human ILT-2 (LILRB1), complete form expressed at the cell surface (human, UniProt Q8NHL6 24-650); assay: flow cytometry, CHO-ILT2 cells
T5 construct: also called CHO-ILT2; CHO ILT2 cell line
T5 sequence (Q8NHL6 24-650): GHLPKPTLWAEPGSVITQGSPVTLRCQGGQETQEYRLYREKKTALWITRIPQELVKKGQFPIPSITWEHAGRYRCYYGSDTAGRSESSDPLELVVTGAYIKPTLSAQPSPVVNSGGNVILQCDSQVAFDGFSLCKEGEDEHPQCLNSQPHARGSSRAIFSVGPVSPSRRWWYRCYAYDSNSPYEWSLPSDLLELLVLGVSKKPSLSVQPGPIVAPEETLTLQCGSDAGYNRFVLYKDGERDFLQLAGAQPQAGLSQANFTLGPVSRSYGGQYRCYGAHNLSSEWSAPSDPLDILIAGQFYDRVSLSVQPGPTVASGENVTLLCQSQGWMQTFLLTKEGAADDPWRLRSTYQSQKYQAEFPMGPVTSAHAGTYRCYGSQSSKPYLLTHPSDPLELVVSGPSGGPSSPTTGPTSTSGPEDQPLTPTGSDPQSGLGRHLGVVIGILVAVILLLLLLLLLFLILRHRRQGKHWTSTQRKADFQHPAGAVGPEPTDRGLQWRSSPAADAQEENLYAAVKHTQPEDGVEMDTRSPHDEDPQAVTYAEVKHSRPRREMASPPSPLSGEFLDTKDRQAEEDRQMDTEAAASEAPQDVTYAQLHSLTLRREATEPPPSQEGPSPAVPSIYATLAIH

T1 sequence (Q8NHL6 24-458 limits assumed): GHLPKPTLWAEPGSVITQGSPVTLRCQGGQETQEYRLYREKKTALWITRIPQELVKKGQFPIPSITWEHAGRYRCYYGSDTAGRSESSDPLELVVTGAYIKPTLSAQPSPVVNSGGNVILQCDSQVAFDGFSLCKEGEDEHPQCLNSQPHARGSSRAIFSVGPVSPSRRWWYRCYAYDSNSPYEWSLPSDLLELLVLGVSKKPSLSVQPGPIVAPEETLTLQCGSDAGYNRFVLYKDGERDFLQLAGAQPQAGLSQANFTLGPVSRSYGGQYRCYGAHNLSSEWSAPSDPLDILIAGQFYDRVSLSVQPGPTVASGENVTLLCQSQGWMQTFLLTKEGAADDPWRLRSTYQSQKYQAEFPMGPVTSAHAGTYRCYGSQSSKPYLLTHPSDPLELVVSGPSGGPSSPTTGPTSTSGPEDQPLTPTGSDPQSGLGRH
T3 sequence (Q8NHL6 other isoform, or with tags, fused parts or gaps mutant): as the sequence (Q8NHL6 24-650) above, with W328G, Q330H, R347A, T349A, Y350S, Y355A counted along it

| Binder | koff [1] | EC50 (read off the curve) (Mutant D4-1B) | EC50 (read off the curve) (Mutant D4-4) | further results |
| --- | --- | --- | --- | --- |
| 27H5 (antibody, human IgG1, V domains shown) VH: QVQLKESGPGLVAPSQSLSITCTVSGFSLTSYGVSWVRQPPGKGLEWLGVIWGDGNTNYHSALISRLSISKDNSKSQVFLKLNSLQTDDTATYYCARTNWDGWFAYWGQGTLVTVSA VL: DIVMTQSHKFMSTSVGDRVSITCKASQDVGTAVAWYQQKPGQSPKLLIYWASTRHTGVPDRFTGSGSGTDFTLTISNVQSEDLADYFCQQYRSYPLGTFGGGTKLEIK | 0.1 s⁻¹ |  |  |  |
| 27C10 (antibody, human IgG1, V domains shown) VH: EVQLQESGPGLVKPSQSLSLTCSVTGYSITSGYYWNWIRQFPENKLEWMGYIRYDGSNNYNPSLNNRISITRDASKNQFFLKLNSVTTEDTATYYCARGWLLWFYAVDYWGQGTSVTVSS VL: DVVMTQTPLSLPVSLGDQASISCRSSQSIVHTNGNTYLEWYLQKSGQSPKLLIYKVSNRLSGVPDRFSGSGSGTDFTLKISRVEAEDLGIYYCFQGSHVPWTFGGGTKLEIK |  | ~0.5 µg/mL | ~0.5 µg/mL | EC50 (read off the curve) (ILT2 mutant 4-2): ~0.6 µg/mL |
| 3H5 (antibody, human IgG1, V domains shown) VH: QVQLKESGPGLVAPSQSLSITCTVSGFSLTSYGVSWVRQPPGKGLEWLGVIWGDGSTNYHSALISRLSISKDNSKSQVFLKLNSLQTDDTATYYCAKPRWDDYAMDYWGQGTSVTVSS VL: DIQMTQTTSSLSASLGDRVTISCRASQDISNYLNWYQQKPDGTVKLLIYYTSRLHSGVPSRFSGSGSGTDYSLTISNLEQEDIATYFCQQGNTLWTFGGGTKLEIK | 0.008 s⁻¹ |  |  |  |
| 26D8 (antibody, human IgG1, V domains shown) VH: QVQLQQSGAELVKPGASVKLSCKASGYTFTEHTIHWIKQRSGQGLEWIGWFYPGSGSMKYNEKFKDKATLTADKSSSTVYMELTRLTSEDSAVYFCARHTNWDFDYWGQGTTLTVSS VL: DIVLTQSPASLAVSLGQRATISCKASQSVDYGGDSYMNWYQQKPGQPPKLLIYAASNLESGIPARFSGSGSGTDLTLNIHPVEEDDAAMYYCQQSNEEPWTFGGGTKLEIK |  | ~0.2 µg/mL |  |  |
| 18E1 (antibody, human IgG1, V domains shown) VH: QVQLQQSGAELVKPGASVRLSCKASGYTFTAHTIHWVKQRSGQGLEWIGWLYPGSGSIKYNEKFKDKATLTADKSSSTVYMELSRLTSEDSAVYFCARHTNWDFDYWGQGTTLTVSS VL: NIVLTQSPASLAVSLGQRATISCKASQSVDYGGASYMNWYQQKPGQPPKLLIYAASNLESGIPARFSGSGSGTDLTLNIHPVEEEDAAMYYCQQSNEEPWTFGGGTKLEIK |  | ~0.3 µg/mL | ~0.3 µg/mL |  |
| GHI/75 (antibody, V domains shown) VH: EVILVESGGALVRPGGSLKLSCAASGFTFSSNAMSWVRQTPEKRLEWVATISNGGTFTYYPDSVKGRFTISRDNAKNTLYLQMNSLRSEDTAMYYCARHGDGNYGDPLDYWGQGTTLTVSS VL: DIQMTQSPASQSASLGESVTITCLASQTIGTWLAWYQQKPGKSPQLLIYAATNLADGVPSRFSGSGSGTKFSFKISSLQAEDFVSYYCQQLYSTPFTFGSGTKLEIK |  |  |  | Kd [2]: 28.1 nM; koff [2]: 0.00038 s⁻¹; kon [2]: 13000 M⁻¹ s⁻¹; EC50 [3]: 5.39 µg/mL |
